Assay results taken from PMC11408154, “Anti-mutagenic agent targeting LexA to combat antimicrobial resistance in mycobacteria” (The Journal of Biological Chemistry, 2024).

Molecular target: the molecule itself
Assay: cross-linking; glutaraldehyde cross-linking of Mtb LexA with or without 3-nPBA (protein to inhibitor 1:100); stopped with 25 mM DTT; 12% SDS-PAGE

B1: Mycobacterium tuberculosis LexA (natural protein)
chain: MNDSNDTSVAGGAAGADSRVLSADSALTERQRTILDVIRASVTSRGYPPSIREIGDAVGLTSTSSVAHQLRTLERKGYLRRDPNRPRAVNVRGADDAALPPVTEVAGSDALPEPTFVPVLGRIAAGGPILAEEAVEDVFPLPRELVGEGTLFLLKVIGDSMVEAAICDGDWVVVRQQNVADNGDIVAAMIDGEATVKTFKRAGGQVWLMPHNPAFDPIPGNDATVLGKVVTVIRKV
notes: also called Mtb LexA; WT Mtb LexA
B1: binds.
